# In PMC4932716:
# Assays:
# [1] = target: recombinant ArtinM (rArtinM) (Artocarpus heterophyllus); assay: AUC; sedimentation velocity at 50,000 rpm, 20 °C, c(S) fit in SEDFIT; confirmed by sedimentation equilibrium
# [2] = target: native ArtinM (jArtinM) (Artocarpus heterophyllus); assay: SDS-PAGE of undenatured sample; undenatured protein (no thermal dissociation) loaded on 12.5 % SDS-PAGE, 3 μg per lane, Coomassie blue G-250
stoichiometry N [1],stoichiometry N [2],Substance
3,,recombinant ArtinM (rArtinM) (natural protein)
,4,native ArtinM (jArtinM) (natural protein)
